{"source": "paper PMC8000408", "about": "“Inhibition of NUPR1–Karyopherin β1 Binding Increases Anticancer Drug Sensitivity” (International Journal of Molecular Sciences, 2021)", "binders": {"B1": {"name": "GST-NUPR1 (nuclear protein-1) recombinant protein (natural protein, UniProt O60356 1-82, looked up)", "chain": "MATFPPATSAPQQPPGPEDEDSSLDESDLYSLAHSYLGGGGRKGRTKREAAANTNRPSPGGHERKLVTKLQNSERKKRGARR", "notes": "Nuclear protein-1 (NUPR1, p8/Com-1); Held on the PEG-coated quartz surface through neutravidin and a biotin-conjugated GST-tag antibody; No catalogue number is printed; also called p8; Com-1; source: bought: NOVUS Biologicals (recombinant protein)"}}, "key": {"[1]": {"target": "T1, Cy5-labeled karyopherin β1 (KPNB1) (UniProt Q14974 1-876, Cy5 label (site not stated))", "T1 construct": "Karyopherin β1 (KPNB1, importin β1); also called importin β1; Cy5-KPNB1", "T1 sequence (Q14974 whole entry)": "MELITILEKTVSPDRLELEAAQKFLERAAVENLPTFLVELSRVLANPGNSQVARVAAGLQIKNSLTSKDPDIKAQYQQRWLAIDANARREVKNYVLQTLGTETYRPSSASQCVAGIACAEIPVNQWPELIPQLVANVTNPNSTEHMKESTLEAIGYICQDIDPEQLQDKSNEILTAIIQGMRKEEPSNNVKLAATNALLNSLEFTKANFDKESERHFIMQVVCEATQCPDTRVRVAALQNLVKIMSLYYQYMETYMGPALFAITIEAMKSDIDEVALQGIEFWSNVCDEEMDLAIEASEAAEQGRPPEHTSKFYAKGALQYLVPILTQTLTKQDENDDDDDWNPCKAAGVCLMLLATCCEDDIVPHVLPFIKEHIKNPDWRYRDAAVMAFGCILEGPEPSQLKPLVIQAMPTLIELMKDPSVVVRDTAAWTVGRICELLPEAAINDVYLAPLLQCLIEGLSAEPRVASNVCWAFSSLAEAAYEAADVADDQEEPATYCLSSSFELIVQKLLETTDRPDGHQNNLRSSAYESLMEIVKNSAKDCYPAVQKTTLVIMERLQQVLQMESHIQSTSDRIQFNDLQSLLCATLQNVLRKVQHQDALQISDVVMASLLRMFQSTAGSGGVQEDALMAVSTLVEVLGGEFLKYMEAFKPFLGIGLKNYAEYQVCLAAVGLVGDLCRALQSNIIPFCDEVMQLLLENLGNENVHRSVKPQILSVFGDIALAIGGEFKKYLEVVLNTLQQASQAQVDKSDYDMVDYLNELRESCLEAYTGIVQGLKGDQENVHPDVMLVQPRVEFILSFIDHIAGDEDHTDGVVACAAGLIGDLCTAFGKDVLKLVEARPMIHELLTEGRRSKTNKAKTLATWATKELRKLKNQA", "assay": "single-molecule pull-down (TIRF microscopy); GST-NUPR1 immobilised; observed rate constants at various concentrations of karyopherin β1, fitted with a Michaelis-Menten equation", "details": "both partners purified"}, "[2]": {"target": "T1, Cy5-labeled karyopherin β1 (KPNB1)", "assay": "single-molecule pull-down (TIRF microscopy); GST-NUPR1 (100 nM) immobilised on PEG-coated quartz via neutravidin and biotin-conjugated GST-tag antibody; 5 nM Cy5-labeled KPNB1 in imaging buffer (4 mM Trolox, 0.2% glucose, 50 mM NaCl, pyranose oxidase, catalase); spots counted up to 1 h, then unbound KPNB1 washed out for dissociation; exponential fits", "details": "both partners purified"}}, "data": [{"binder": "B1", "values": [{"measurement": "Kd", "setting": "[1]", "value": 0.75, "unit": "nM"}, {"measurement": "Kd", "setting": "[2]", "value": "~0.65", "unit": "nM"}, {"measurement": "koff", "setting": "[2]", "value": 0.0003, "unit": "s⁻¹"}, {"measurement": "kon", "setting": "[2]", "value": 467000, "unit": "M⁻¹ s⁻¹"}]}]}
